Reference: publication PMC2650391 (2009)

Biological target: Histone H3K4me3 peptide (Homo sapiens, UniProt P68431)

B1: ING4 PHD (protein)
chain: PNEPTYCLCHQVSYGEMIGCDNPDCSIEWFHFACVGLTTKPRGKWFCPRCSQERKK
- Kd: 7.9 µM
